The record followed here is article PMC12364357, “Glutamate dehydrogenase from Pantoea ananatis: A new bacterial enzyme with dual coenzyme specificity” (PLOS One, 2025).

Assay in all cases: purified protein
Series [1] relates to NC(=O)c1ccc[n+]([C@@H]2O[C@H](COP(=O)(O)OP(=O)(O)OC[C@H]3O[C@@H](n4cnc5c(N)ncnc54)[C@H](O)[C@@H]3O)[C@@H](O)[C@H]2O)c1. The conditions noted are these: oxidative deamination, 150 mM L-Glu, 80 mM CHES pH 9.5, 25 °C, pH 9.5.
Series [2] concerns NC(=O)C1=CN([C@@H]2O[C@H](COP(=O)(O)OP(=O)(O)OC[C@H]3O[C@@H](n4cnc5c(N)ncnc54)[C@H](O)[C@@H]3O)[C@@H](O)[C@H]2O)C=CC1. The conditions noted are these: reductive amination, 5 mM α-KG, 50 mM NH4Cl, 80 mM Tris-HCl pH 8.0, 25 °C, pH 8.0.
Series [3] relates to NC(=O)C1=CN([C@@H]2O[C@H](COP(=O)(O)OP(=O)(O)OC[C@H]3O[C@@H](n4cnc5c(N)ncnc54)[C@H](OP(=O)(O)O)[C@@H]3O)[C@@H](O)[C@H]2O)C=CC1. To be noted: reductive amination, 5 mM α-KG, 50 mM NH4Cl, 80 mM Tris-HCl pH 8.0, 25 °C, pH 8.0.
Series [4] concerns NC(=O)c1ccc[n+]([C@@H]2O[C@H](COP(=O)(O)OP(=O)(O)OC[C@H]3O[C@@H](n4cnc5c(N)ncnc54)[C@H](OP(=O)(O)O)[C@@H]3O)[C@@H](O)[C@H]2O)c1. The conditions noted are these: oxidative deamination, 150 mM L-Glu, 80 mM imidazole pH 6.0, 25 °C, pH 6.0.
For the next series, the system named is O=C(O)CCC(=O)C(=O)O. To be noted: reductive amination, 0.2 mM NADH, 50 mM NH4Cl, 80 mM Tris-HCl pH 8.0, 25 °C, pH 8.0.

As for GdhPa (Pantoea ananatis LMG 5342), the Km – broadly, the concentration of substrate that gives half-maximal velocity – in series [1] amounted to 900 ± 60 µM; in series [2], 70 ± 14 µM; in series [3], 78 ± 17 µM; in series [4] it was 440 ± 50 µM; with O=C(O)CCC(=O)C(=O)O, 1300 ± 210 µM. The maximal velocity (Vmax) (in general, the rate approached at saturating substrate) was 11.6 µmol/min/mg in series [1]; 5.43 µmol/min/mg in series [2]; 6.29 µmol/min/mg in series [3]; 0.67 µmol/min/mg in series [4]; 5.93 µmol/min/mg in the series with O=C(O)CCC(=O)C(=O)O. For the same substance, the kcat – broadly, the maximal rate divided by the concentration of active sites – in series [1] was 8.97 s⁻¹; in series [2], 4.21 s⁻¹; in series [3], 4.87 s⁻¹; in series [4], 0.52 s⁻¹; in the series on O=C(O)CCC(=O)C(=O)O it was 4.6 s⁻¹. Besides, the kcat/Km (commonly the second-order rate constant that governs catalysis at low substrate concentration) in series [1] came out at 9960 M⁻¹ s⁻¹; in series [2] it was 60100 M⁻¹ s⁻¹; in series [3], 62500 M⁻¹ s⁻¹; in series [4] it was 1180 M⁻¹ s⁻¹; in the series on O=C(O)CCC(=O)C(=O)O, 3540 M⁻¹ s⁻¹.
